Where no end group is shown, it is not given here. [ ]: non-standard residue; d: D form. Aib = CC(C)(N)C(=O)O
Assay: Circular dichroism: degree of helicity (free, SUVs, micelles, TFE)
Conditions: for He (%) free: percent helicity of free, unbound peptide; for He (%) SUVs: percent helicity of peptide-SUV complexes; for He (%) mics: percent helicity of peptide-micelle complexes; for He (%) TFE: percent helicity of peptide-TFE solution
Method: Far UV circular dichroism spectra were recorded between 190 and 260 nm (in 0.5 nm or 0.2 nm increments) with a AVIV62DS spectrometer (AVIV Associates, Lakewood, N.J., USA) equipped with a thermoelectric cell holder and sample changer. The instrument was calibrated with (+)-10-camphoric acid. Between one and three scans were collected for each sample, using 10 cm, 5 cm, 1 cm and 0.1 cm path length quartz Suprasil cells, respectively, for peptide concentrations of 10^−7 M to 10^−4 M. The bandwidth was fixed at 1.5 nm and the scan speed to 1 s per wavelength step. The reported data are the mean of at least 2 or 3 independent measurements.
After background substraction, spectra were converted to molar ellipticity (θ) per residue in deg. […] dmol^−1. The peptide concentration was determined by amino acid analysis and also by absorption spectrometry on a Perkin Elmer Lambda 17 UV/Visible spectrophotometer when the peptide contained a chromophore (tryptophane, dansyl, naphtylalanine).
CD spectra were obtained with free, unbound peptide (5 μM in 5 mM phosphate buffer, pH 7.4); with peptide-SUV complexes (20:1 EPC:Chol., Ri=30 and Ri=50); with peptide-micelle complexes (1-myristoyl-2-hydroxy-sn-glycero-3-phosphatidyl choline, Ri=100); and with free, unbound peptide in the presence of 2,2,2-trifluoroethanol (TFE) (5 μM peptide, 90% vol TFE).
The SUVs were obtained by dispersing the lipids (10 mM, 20:1 EPC:Chol., Avanti Polar Lipids, Ala.) in phosphate buffer (5 mM, pH 7.4) with bubbling N2 for 5 min., followed by sonication (1.5 hr.) in a bath sonicator. The homogeneity of the preparation was checked by FPLC.
The micelles were obtained by dispersing the lipid (6 mM 1-myristoyl-2-hydroxy-sn-glycero-3-phosphatidyl choline, Avanti Polar Lipids, AL) in phosphate buffer (5 mM, pH 7.4) with bubbling N2 for 5 min., followed by vortexing.
To obtain the peptide-SUV complexes, SUVs were added to the peptide (5 μM in 5 mM phosphate buffer, pH 7.4) at a phospholipid-peptide molar ratio (Ri) of 30 or 50.
To obtain the peptide-micelle complexes, micelles were added to the peptide (5 μM in 5 mM phosphate buffer, pH 7.4) at a Ri of 100.
All spectra were recorded at 37° C. The stability of peptide 4 (SEQ ID NO:4) as a function of temperature (both free in buffer and in micelles) was determined by recording spectra at a series of different temperatures.
The degree of helicity of peptide 4 (SEQ ID NO:4) as a function of concentration was also determined.
The degree of helicity of the peptides in the various conditions was determined from the mean residue ellipticity at 222 nm (Chen et al., 1974, Biochemistry 13:3350-3359) or by comparing the CD spectra obtained to reference spectra available on databases (16 helical reference spectra from Provencher & Glockner, 1981, Biochemistry 20:33-37; denatured protein reference spectra from Venyaminov et al., 1993, Anal. Biochem. 214:17-24) using the CONTIN curve-fitting algorithm version 2DP, CD-1 pack (Aug. 1982) (Provencher, 1982, Comput. Phys. Commun. 27:213-227, 229-242). Acceptable fit was determined using the statistical analysis methodology provided by the CONTIN algorithm.

Substance | He (%) free | He (%) SUVs | He (%) mics | He (%) TFE | % helicity in the presence of TFE | helical structure in the presence of lipids | % Helicity Free (peptide concentration 5.0 μM, free in buffer)
62 (PVLDEWREKLNE[Aib]LEALKQKLK) [compound 62] | 15% | 43% | 85% | – | – | – | –
46 (PVLDLFREKLNE[Aib]LEALKQKLK) [compound 46] | 30% | 58% | 86% | 85% | – | – | –
36 (PLLELLKELLQELLEALKQKLK) [compound 36] | 95% | – | 100% | 95% | – | – | –
154 (PVLELFENLLERGLDALQKKLK) [compound 154] | 13% | 25% | 76% | 80% | – | – | –
40 (PVLDLFNELLRELLEALQKKLK) [compound 40] | 66% | 79% | 84% | 77% | – | – | –
41 (PVLDLWRELLNE[Aib]LEALKQKLK) [compound 41] | 53% | 85% | 73% | 69% | – | – | –
42 (PVLDEFREKLNE[Aib]WEALKQKLK) [compound 42] | 15% | 27% | 74% | 76% | – | – | –
240 (Ac-DWLKAFYDKVAEKLKEAF-NH2) [compound 240] | 16% | 59% | 68% | 57% | – | – | –
39 (PVLDLFRELLEELLKALKKKLK) [compound 39] | 66% | 68% | 69% | 72% | – | – | –
217 (PVLDLFRELLELLKQKLK) [compound 217] | 52% | 76% | 78% | 70% | – | – | –
PVLDLFRELLNEXLEALKQKLK (PVLDLFRELLNE[Aib]LEALKQKLK) [peptide 6] | 57% | 70% | 93% | 99% | – | – | –
113 (PVLDEFREKLNEPLEALKQKLK) [compound 113] | 6% | – | 22% | – | – | – | –
104 (PLLNELLEALKQKLK) [compound 104] | 21% | 29% | 49% | 55% | – | – | –
PVLDEFREKLNEALEALKQKLK [peptide 94, reference compound] | 18% | 27% | 70% | 63% | – | – | –
PVLDLFRELLNEGLEALKQKLK [peptide 8] | 20% | 61% | 90% | 93% | 93% | 61-93% | 20%
76 (PVLDEFRELLFE[Aib]LEALKQKLK) [compound 76] | 41% | – | 88% | 66% | – | – | –
67 (VLDLFRELLNELLEALKQKLK) [compound 67] | 81% | 84% | 90% | 94% | – | – | –
51 (PVLDLFWELLNE[Aib]LEALKQKLK) [compound 51] | 63% | 81% | 82% | 73% | – | – | –
66 (PVLDLFRNLLEELLEALQKKLK) [compound 66] | 64% | 66% | 82% | 70% | – | – | –
DWLKAFYDKVFEKFKEFF [peptide 245, reference compound] | 38% | 70% | 77% | – | – | – | –
35 (PVLDWFRELLNELLEALKQKLK) [compound 35] | – | 61% | 59% | – | – | – | –
PVLDFFRELLNEXLEALKQKLK (PVLDFFRELLNE[Aib]LEALKQKLK) [peptide 25] | 46% | – | 82% | 93% | – | – | –

Substance | He (%) free | He (%) SUVs | He (%) mics | He (%) TFE | % helicity in the presence of TFE | helical structure in the presence of lipids | % Helicity Free (peptide concentration 5.0 μM, free in buffer)
215 (Ac-PVLDLFRELLEEWKQKLK-NH2) [compound 215] | 28% | 53% | 63% | 68% | – | – | –
146 (PVLELFENLLERLLDALQKKLK) [compound 146] | 97% | 100% | 100% | 95% | – | – | –
55 (PLFRELLNELLEALKQKLK) [compound 55] | 38% | 78% | 72% | 75% | – | – | –
50 (PVLDLFRELLWE[Aib]LEALKQKLK) [compound 50] | 68% | 89% | 84% | 76% | – | – | –
163 (PVLELFENLLERLWDALQKKLK) [compound 163] | 27% | – | 53% | 55% | – | – | –
223 (PVLDAFRELLEALAQLKK) [compound 223] | 21% | 23% | 56% | 51% | – | – | –
60 (PVLDLFRELLNELLEALKQ) [compound 60] | 39% | 66% | 83% | 84% | – | – | –
149 (PVLELFENLWERLLDALQKKLK) [compound 149] | 28% | – | 54% | 47% | – | – | –
85 (PLDLFRELLNELLEALKQKLK) [compound 85] | 58% | 64% | 61% | 69% | – | – | –
70 (PVLDEFRELLYE[Aib]LEALKQKLK) [compound 70] | 27% | 33% | 78% | 66% | – | – | –
164 (PVLELFENLLERLLDAWQKKLK) [compound 164] | 37% | 51% | 66% | 61% | – | – | –
209 (PVLDLFRELLNELLQKLK) [compound 209] | 54% | 67% | 71% | 62% | – | – | –
192 (Ac-PVLDLFKELLEELKQKLK-NH2) [compound 192] | 36% | – | – | 56% | – | – | –
160 (PVLELFENLLERLLDWLQKKLK) [compound 160] | 65% | 75% | 73% | 61% | – | – | –
PVLDLFRELLNELWEALKQKLK [peptide 28] | 82% | 90% | 98% | 81% | – | – | –
LDDLLQKWAEAFNQLLKK [peptide 237, reference compound] | 30% | 45% | 66% | – | – | – | –
210 (PVLDLFRELLEELKQKLK) [compound 210] | 20% | 37% | 63% | 53% | – | – | –
PVLDEFREKLNERLEALKQKLK [peptide 109, reference compound] | 19% | 23% | 45% | 58% | – | – | –
DWLKAFYDKVAEKLKEAF [peptide 244, reference compound] | 9% | 13% | 40% | 48% | – | – | –
31 (PVLDLFLELLNE[Aib]LEALKQKLK) [compound 31] | 49% | – | 98% | 90% | – | – | –
194 (Ac-PVLELFRELLEELKQKLK-NH2) [compound 194] | 38% | – | 93% | 93% | – | – | –
199 (Ac-PVLDLFRELWEELKQKLK-NH2) [compound 199] | 35% | 80% | 77% | 79% | – | – | –
